Molecular target: the molecule itself
Assay: cryo-EM structure

B1: protein VC1979 of Vibrio cholerae (dNTPase) (enzyme)
chain: QVSLNPEWLARNNDEHKIRRNDHRSPFQRDRARILHSAAFRRLQAKTQVHGTSLNDFHRTRLTHSLEAAQIGTGIVAQIKLKQPEFRELLPSDSLIDSLCLAHDIGHPPYGHGGEIALNYMMRDHGGFEGNAQTFRIVTSLEPYTEHHGMNLSRRTLLGLLKYPALLSATRAAIPPPAVAHQRQLKAKDWSPAKGIYDCDLASLDWVLEPLCESDRELLGQMRAEPSSPKEHRKTRFKSLDCSIMELADDIAYGVHDLEDAIVLGMVTRAQWQEAAAAQLAECGDPWFEEHIAELSEMLFSGKHYVRKDAIGGIVNALLTSISVKPVEAPFHNELLAFNAYIEPHMGNALEVLKHFVSQYVIQIPQVQRFEYKGQQLIMDLFEALSADPERLLPQATGEKWRKAQEQDEGMRVICDYIAAMTDAYAQRLHQQLFSAQSHY
  stoichiometry N: 6
